This passage reports Mean relative activity results from US20220259593A1, “CONTROL OF MAMMALIAN GENE DOSAGE USING CRISPR” (The Regents of the University of California, priority 2019, published 2022).

This data set deals with K562 CRISPRi cells. Put plainly: Constant region variant library pooled growth screen, K562. The class given is cell-based, human. The settings on record: sgRNA constant region variants; activity relative to the original, un-modified constant region cr995. In short, it runs like this: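 Relative activity expresses each targeting sequence:constant region pair's phenotype over that of the unmodified constant region. Pooled growth screen ran in K562 CRISPRi cells in duplicate spinner-flask replicates, with puromycin selection and 4–8 days' growth at >2000× coverage; library paired variants with 36 targeting sequences.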

Substitutions are numbered along the chain they refer to.

B1: cr734 (nucleic acid)
guide: GTTTAAGAGCTAAGCTGGAAACAGCATCGCAAGTTTAAATAAGGCTAGTCCGTTCTCAACTTGAAAAAGTCGCACCGAGTCGGTGCT
modifications: listed as DNA, chemistry not fully specified
Consider B1, for which the Mean relative activity came to 0.6906.

B2: cr292 (nucleic acid)
guide: B1 guide with C28A, C55A
modifications: listed as DNA, chemistry not fully specified
The molecule B2 registered a Mean relative activity of 0.6902.

B3: cr840 (nucleic acid)
guide: B1 guide with C28A, C55A, A65G, C71A
modifications: listed as DNA, chemistry not fully specified
B3 registered a Mean relative activity of 0.6688.

B4: cr848 (nucleic acid)
guide: B1 guide with C28A, C55A, A65G, C71G, A78G
modifications: listed as DNA, chemistry not fully specified
The molecule B4 had a Mean relative activity of 0.6714.

B5: cr622 (nucleic acid)
guide: B1 guide with C28A, C55A, A59G, T62G, A67C, T70C, C71G
modifications: listed as DNA, chemistry not fully specified
Take B5: the Mean relative activity was determined as 1.099.

B6: cr273 (nucleic acid)
guide: B1 guide with C28A, G44T, C50A, C55A, A65G, C71G
modifications: listed as DNA, chemistry not fully specified
B6 registered a Mean relative activity of 0.6725.

B7: cr501 (nucleic acid)
guide: B1 guide with C28A, C55A, A65G, C71G, G72T, C86A
modifications: listed as DNA, chemistry not fully specified
For B7, the Mean relative activity amounted to 1.052.

B8: cr877 (nucleic acid)
guide: B1 guide with C28A, C55A, T61C, A68G, C71G, G72C, C76G, G82C, C86G
modifications: listed as DNA, chemistry not fully specified
B8 displayed a Mean relative activity of 0.686.

B9: cr658 (nucleic acid)
guide: B1 guide with C28A, C45A, G48T, C55A, C60T, T62C, A67G, G69A, C71G
modifications: listed as DNA, chemistry not fully specified
In turn, B9 came in with a Mean relative activity of 0.6883.

B10: cr607 (nucleic acid)
guide: B1 guide with C28A, C55A, C71G, G79A, T80C
modifications: listed as DNA, chemistry not fully specified
As to B10, the Mean relative activity stood at 0.6847.

B11: cr437 (nucleic acid)
guide: B1 guide with C28A, C55A, T61G, A68C, C71G, C76A, G77C, C81G, G82T
modifications: listed as DNA, chemistry not fully specified
On to B11, for which the Mean relative activity came out at 0.6854.

B12: cr133 (nucleic acid)
guide: B1 guide with C28A, T46A, T49C, C55A, C71G
modifications: listed as DNA, chemistry not fully specified
For the molecule B12, the Mean relative activity was found to be 0.6664.

B13: cr962 (nucleic acid)
guide: B1 guide with C28A, C55A, C71G, C73G, G77C, C81G, G85C
modifications: listed as DNA, chemistry not fully specified
Turning to B13, the Mean relative activity came out at 0.6733.

B14: cr596 (nucleic acid)
guide: B1 guide with C28A, C55A, C71G, C73G
modifications: listed as DNA, chemistry not fully specified
In turn, B14 registered a Mean relative activity of 0.69.

B15: cr279 (nucleic acid)
guide: B1 guide with C28A, C55A, C71G, T80C, T87C
modifications: listed as DNA, chemistry not fully specified
B15 gave a Mean relative activity of 0.6783.

B16: cr552 (nucleic acid)
guide: B1 guide with C28A, T53A, C55G, T56G, C71G
modifications: listed as DNA, chemistry not fully specified
B16 gave a Mean relative activity of 0.6864.
